Reference: patent publication US20260152730A1

Experiments:
[1] = target: domain 11 of the CI-M6P/IGF2R; test: competitive ELISA on domain 11 of CI-M6P/IGF2R; cold ligand 1-500 nM against 8 nM biotinylated IGF2
[2] = target: insulin receptor isoform-A (IR-A); test: competitive ELISA on IR-A; cold ligand 1-500 nM against 0.8 nM biotinylated insulin

| IC50 [1] | times increased IC50 against Δ1-6.IGF2 peptide [1] | IC50 [2] | fold lower affinity than Δ1-6.IGF2 peptide [2] | Substance |
| --- | --- | --- | --- | --- |
| 61.7 nM | 12.3 times | 251 nM | 150 fold | IDS.IGF2 (construct 2): IDS tagged C-terminally with aa 1, 8-67 of the mature human IGF2 (from UniProt P22304) |
| 5.01 nM | – | 1.61 nM | – | IGF2 peptide carrying a mutation of AA 1-6 (Δ1-6.IGF2 peptide) (from UniProt P01344) (ligand) |
